# Values quoted from earlier work in PMC5751705.
# Columns and labels:
# [1] = target: YopB (Yersinia pestis) (UniProt Q06114)
# [2] = target: substance P (Homo sapiens) (UniProt P20366)
# Sequence of substance P (Homo sapiens) (P20366 whole entry, looked up): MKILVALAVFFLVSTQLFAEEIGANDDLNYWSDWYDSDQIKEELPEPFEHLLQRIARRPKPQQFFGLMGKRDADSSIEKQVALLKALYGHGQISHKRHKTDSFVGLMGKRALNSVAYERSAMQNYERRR
# Sequence of LcrV (P0C7U7 whole entry): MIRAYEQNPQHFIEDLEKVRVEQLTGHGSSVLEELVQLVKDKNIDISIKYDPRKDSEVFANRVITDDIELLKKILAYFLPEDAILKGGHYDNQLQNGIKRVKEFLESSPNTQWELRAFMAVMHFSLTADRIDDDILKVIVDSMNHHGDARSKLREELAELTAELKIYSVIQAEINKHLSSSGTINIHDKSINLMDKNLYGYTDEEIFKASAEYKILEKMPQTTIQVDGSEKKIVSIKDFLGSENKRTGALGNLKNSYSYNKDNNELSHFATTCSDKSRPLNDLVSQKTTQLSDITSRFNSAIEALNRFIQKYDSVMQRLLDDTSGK
# Sequence of NK1R (P25103 whole entry): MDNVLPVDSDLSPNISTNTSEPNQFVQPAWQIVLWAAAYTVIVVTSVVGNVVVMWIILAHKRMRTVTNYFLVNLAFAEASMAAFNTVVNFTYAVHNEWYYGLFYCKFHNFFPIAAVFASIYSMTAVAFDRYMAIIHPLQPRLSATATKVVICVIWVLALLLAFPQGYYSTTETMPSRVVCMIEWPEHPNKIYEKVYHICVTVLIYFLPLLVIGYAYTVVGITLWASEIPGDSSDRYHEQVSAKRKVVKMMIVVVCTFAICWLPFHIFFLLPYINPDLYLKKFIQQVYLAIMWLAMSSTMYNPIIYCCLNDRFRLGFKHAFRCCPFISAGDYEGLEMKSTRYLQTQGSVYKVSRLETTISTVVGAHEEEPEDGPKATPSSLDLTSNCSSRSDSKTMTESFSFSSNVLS
# Sequence of YopB (Yersinia pestis) (Q06114 whole entry): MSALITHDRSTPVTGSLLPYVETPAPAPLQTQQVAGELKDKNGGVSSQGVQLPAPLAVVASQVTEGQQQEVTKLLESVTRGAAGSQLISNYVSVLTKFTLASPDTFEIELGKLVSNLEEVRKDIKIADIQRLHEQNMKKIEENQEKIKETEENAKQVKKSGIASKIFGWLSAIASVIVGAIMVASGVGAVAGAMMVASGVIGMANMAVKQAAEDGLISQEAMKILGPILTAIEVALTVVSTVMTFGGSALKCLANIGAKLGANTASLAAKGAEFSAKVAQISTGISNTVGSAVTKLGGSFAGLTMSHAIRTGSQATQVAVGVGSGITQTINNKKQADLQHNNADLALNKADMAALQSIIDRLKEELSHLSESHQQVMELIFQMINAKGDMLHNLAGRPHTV
substance,measurement,setting,value
LcrV (from UniProt P0C7U7),Kd,[1],20.5 nM
NK1R (from UniProt P25103),Kd,[2],83 nM
